Assay results taken from US20190142860A1, “NUCLEIC ACID BASED TIA-1 INHIBITORS” (Aquinnah Pharmaceuticals, Inc., priority 2015, published 2019).

Columns and labels:
[1] = biological target: Nucleolysin TIA-1 (endogenous mouse TIA1) (mouse) (UniProt P52912); assay: TIA1 IP-MS, WT2 cortex
[2] = biological target: Nucleolysin TIA-1 (endogenous mouse TIA1) (mouse) (UniProt P52912); assay: TIA1 IP-MS, tau KO 2 cortex
[3] = biological target: Nucleolysin TIA-1 (endogenous mouse TIA1) (mouse) (UniProt P52912); assay: TIA1 IP-MS, tau KO 1 cortex
[4] = biological target: Nucleolysin TIA-1 (endogenous mouse TIA1) (mouse) (UniProt P52912); assay: TIA1 IP-MS, tau KO 3 cortex
[5] = biological target: Nucleolysin TIA-1 (endogenous mouse TIA1) (mouse) (UniProt P52912); assay: TIA1 IP-MS, WT3 cortex
[6] = biological target: Nucleolysin TIA-1 (endogenous mouse TIA1) (mouse) (UniProt P52912); assay: TIA1 IP-MS, WT1 cortex

Sequence of UniProt P52912 (P52912 whole entry): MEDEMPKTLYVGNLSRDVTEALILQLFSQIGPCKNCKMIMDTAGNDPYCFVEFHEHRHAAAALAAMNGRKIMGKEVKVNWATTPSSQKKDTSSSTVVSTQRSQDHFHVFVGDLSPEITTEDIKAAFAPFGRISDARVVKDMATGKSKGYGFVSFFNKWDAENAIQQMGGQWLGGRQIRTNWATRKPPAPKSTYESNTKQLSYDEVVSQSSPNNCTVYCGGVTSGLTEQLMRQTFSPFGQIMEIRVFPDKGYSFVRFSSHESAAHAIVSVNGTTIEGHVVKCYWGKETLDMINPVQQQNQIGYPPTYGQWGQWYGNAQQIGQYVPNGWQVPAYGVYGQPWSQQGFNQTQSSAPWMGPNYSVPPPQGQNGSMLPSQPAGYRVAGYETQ

| total ion current (normalized to TIA1 = 1000) [1] | total ion current (normalized to TIA1 = 1000) [2] | total ion current (normalized to TIA1 = 1000) [3] | total ion current (normalized to TIA1 = 1000) [4] | total ion current (normalized to TIA1 = 1000) [5] | total ion current (normalized to TIA1 = 1000) [6] | Substance |
| --- | --- | --- | --- | --- | --- | --- |
| 0 | 0 | 4.11 | 0 | 0 | 80.3 | 26S proteasome non-ATPase regulatory subunit 8 (from UniProt Q9CX56 1-353) |
| 86 | 15.7 | 0 | 0 | 0 | 0 | 28 kDa heat- and acid-stable phosphoprotein (from UniProt Q3UHX2 1-181) |
| 52.7 | 0 | 0 | 0 | 0 | 0 | 39S ribosomal protein L46, mitochondrial (from UniProt Q9EQI8 1-283) |
| 128 | 186 | 0 | 0 | 68.8 | 0 | AP-2 complex subunit alpha-2 (from UniProt P17427 1-938) |
| 375 | 0 | 0 | 0 | 0 | 0 | ATP synthase subunit O, mitochondrial (from UniProt Q9DB20 24-213) |
| 20.2 | 67.1 | 0 | 0 | 0 | 0 | ATP-dependent 6-phosphofructokinase, platelet type (from UniProt Q9WUA3 1-784) |
| 175 | 70.3 | 0 | 0 | 18.1 | 0 | Acetyl-CoA acetyltransferase, mitochondrial (from UniProt Q8QZT1 31-424) |
| 818 | 421 | 0 | 0 | 164 | 0 | Aconitate hydratase, mitochondrial (from UniProt Q99KI0 28-780) |
| 77 | 28.8 | 0 | 0 | 14.5 | 0 | Alpha-actinin-4 (from UniProt P57780 1-912) |
| 113 | 0 | 0 | 0 | 0 | 0 | Amphiphysin (from UniProt Q7TQF7 1-686) |
| 42.4 | 71.9 | 0 | 1120 | 44.8 | 0 | Annexin A7 (from UniProt Q07076 1-463) |
| 204 | 136 | 0 | 0 | 17 | 0 | Aspartate aminotransferase, cytoplasmic (from UniProt P05201 2-413) |
| 0 | 0 | 25.8 | 0 | 0 | 16.7 | Band 4.1-like protein 2 (from UniProt O70318 2-988) |
| 92.1 | 0 | 0 | 0 | 0 | 0 | CaM kinase-like vesicle-associated protein (from UniProt Q3UHL1 1-512) |
| 181 | 231 | 0 | 0 | 21.6 | 0 | Calcium-binding mitochondrial carrier protein Aralar1 (from UniProt Q8BH59 2-677) |
| 274 | 144 | 0 | 0 | 0 | 0 | Calcium-transporting ATPase (from UniProt Q6Q477 1-1205) |
| 38.6 | 58.4 | 0 | 0 | 50.1 | 0 | Carbonic anhydrase 2 (from UniProt P00920 2-260) |
| 0 | 0 | 123 | 0 | 0 | 9.46 | Catenin beta-1 (from UniProt Q02248 2-781) |
| 234 | 108 | 0 | 0 | 106 | 0 | Centromere protein V (from UniProt Q9CXS4 1-252) |
| 58.5 | 45.2 | 0 | 0 | 0 | 0 | Clathrin heavy chain 1 (from UniProt Q68FD5 2-1675) |
| 90.8 | 29 | 0 | 0 | 145 | 0 | Clathrin light chain A (from UniProt O08585 1-235) |
| 147 | 76.2 | 0 | 0 | 0 | 0 | Cleavage and polyadenylation specificity factor subunit 6 (from UniProt Q6NVF9 1-551) |
| 75.3 | 6.9 | 0 | 0 | 18.8 | 0 | Cluster of Phosphatidylinositol 5-phosphate 4-kinase type-2 alpha (from UniProt O70172 2-405) |
| 210 | 213 | 0 | 0 | 337 | 0 | Cluster of Ras-related protein Rab-5C (from UniProt P35278 1-216) |
| 74.2 | 31 | 0 | 0 | 0 | 0 | Coronin-1A (from UniProt O89053 2-461) |
| 1320 | 1030 | 0 | 0 | 2460 | 0 | Cytochrome b-c1 complex subunit 1, mitochondrial (from UniProt Q9CZ13 35-480) |
| 107 | 31.3 | 0 | 0 | 0 | 0 | Dihydrolipoyl dehydrogenase, mitochondrial (from UniProt O08749 36-509) |
| 353 | 130 | 0 | 0 | 0 | 0 | Dihydrolipoyllysine-residue acetyltransferase component of pyruvate dehydrogenase complex, mitochondrial (from UniProt Q8BMF4 86-642) |
